Assay results as given in patent US7026443.
Like-named read-outs stand apart in the source and are kept apart here.

Molecular target: HLA-A*0201 (human)
[1] = remark: other sources report otherwise

KLPDLCTEL (modifications not checked) [HPV18 E6 peptide … (position 13)]
relative binding ratio (IC50 of standard peptide / IC50 of test peptide) [1]: 0.0035

ALDGNLVSM (modifications not checked) [HPV16 E1 … (position 539)]
relative binding ratio (IC50 of standard peptide / IC50 of test peptide): 0.027

QLFLNTLSFV (modifications not checked) [HPV18 E7 peptide … (position 88, 10 amino acids as printed)]
relative binding ratio (IC50 of standard peptide / IC50 of test peptide) (ratio to standard peptide): 0.11

ELSQMVQWA (modifications not checked) [HPV16 E1 356 peptide …]
relative binding ratio (IC50 of standard peptide / IC50 of test peptide): 0.0003

CLYLHIQSLA (modifications not checked)
relative binding ratio (IC50 of standard peptide / IC50 of test peptide): 0.0032

FAFKDLFVV (modifications not checked) [HPV18 E6 peptide … (position 47)]
relative binding ratio (IC50 of standard peptide / IC50 of test peptide): 0.085

EVFEFAFKDL (modifications not checked) [HPV18 E6 peptide … (position 43)]
relative binding ratio (IC50 of standard peptide / IC50 of test peptide): 0.0009

ELTEVFEFA (modifications not checked) [HPV18 E6 peptide … (position 40)]
relative binding ratio (IC50 of standard peptide / IC50 of test peptide) [1]: 0.0012

KLRSTAAAL (modifications not checked) [HPV31 E1 peptide … (position 291, 9 amino acids)]
relative binding ratio (IC50 of standard peptide / IC50 of test peptide) (ratio to standard peptide): 0.0003

FLKSNSQAKI (modifications not checked) [HPV31 E1 372 peptide … (SEQ ID NO: 4704)]
relative binding ratio (IC50 of standard peptide / IC50 of test peptide) (ratio to standard peptide): 0.0011

PLNPAEKLRHL (modifications not checked) [HPV18 E6 peptide … (position 111)]
relative binding ratio (IC50 of standard peptide / IC50 of test peptide): 0.0001

FLKSNSQAKI (modifications not checked) [HPV16 E1 392 peptide …]
relative binding ratio (IC50 of standard peptide / IC50 of test peptide): 0.0011

DLLCHEQL (modifications not checked) [HPV18 E7 peptide DLLCHEQL (position 24)]
relative binding ratio (IC50 of standard peptide / IC50 of test peptide): 0.0001

KLPDLCTEL (modifications not checked) [HPV45 E6 peptide … (position 13, 9 amino acids)]
relative binding ratio (IC50 of standard peptide / IC50 of test peptide) [1]: 0.0035

FVNSKSHFWL (modifications not checked) [HPV16 E1 501 peptide …]
relative binding ratio (IC50 of standard peptide / IC50 of test peptide): 0.0015

GLYNLLIRCL (modifications not checked) [HPV18 E6 peptide … (position 97)]
relative binding ratio (IC50 of standard peptide / IC50 of test peptide): 0.0036

CLYLHIQSL (modifications not checked)
relative binding ratio (IC50 of standard peptide / IC50 of test peptide): 0.076

VVYRDSIPHA (modifications not checked) [HPV18 E6 peptide … (position 54)]
relative binding ratio (IC50 of standard peptide / IC50 of test peptide): 0.0003

TLSFVCPWCA (modifications not checked) [HPV18 E7 peptide … (position 93, 10 amino acids)]
relative binding ratio (IC50 of standard peptide / IC50 of test peptide) (ratio to standard peptide): 0.0027

ALYWYKTGI (modifications not checked) [HPV16 E1 … (position 318)]
relative binding ratio (IC50 of standard peptide / IC50 of test peptide): 0.0019

FLKSNSQAKI (modifications not checked) [HPV33 E1 peptide … (position 385, 10 amino acids)]
relative binding ratio (IC50 of standard peptide / IC50 of test peptide) (ratio to standard peptide): 0.0011

EITCVYCKTV (modifications not checked) [HPV18 E6 29 …]
binding affinity ratio (IC50 of the standard peptide / IC50 of the test peptide): 0.0002

PVDLLCHEQL (modifications not checked) [HPV18 E7 peptide … (position 22, 10 amino acids)]
relative binding ratio (IC50 of standard peptide / IC50 of test peptide) (ratio to standard peptide): 0.0001

TLSFVCPWCA (modifications not checked) [HPV45 E7 peptide … (position 94, 10 amino acids)]
relative binding ratio (IC50 of standard peptide / IC50 of test peptide) (ratio to standard peptide): 0.0027

ALKRFLQGI (modifications not checked) [HPV16 E1 … (position 459)]
relative binding ratio (IC50 of standard peptide / IC50 of test peptide): 0.0062
